{"source": "patent US20090215081", "target": "T1, FLAG-TCF4, full length human TCF4 expressed from pFLAG-CMV-4, Q9NQB0", "T1 chain": "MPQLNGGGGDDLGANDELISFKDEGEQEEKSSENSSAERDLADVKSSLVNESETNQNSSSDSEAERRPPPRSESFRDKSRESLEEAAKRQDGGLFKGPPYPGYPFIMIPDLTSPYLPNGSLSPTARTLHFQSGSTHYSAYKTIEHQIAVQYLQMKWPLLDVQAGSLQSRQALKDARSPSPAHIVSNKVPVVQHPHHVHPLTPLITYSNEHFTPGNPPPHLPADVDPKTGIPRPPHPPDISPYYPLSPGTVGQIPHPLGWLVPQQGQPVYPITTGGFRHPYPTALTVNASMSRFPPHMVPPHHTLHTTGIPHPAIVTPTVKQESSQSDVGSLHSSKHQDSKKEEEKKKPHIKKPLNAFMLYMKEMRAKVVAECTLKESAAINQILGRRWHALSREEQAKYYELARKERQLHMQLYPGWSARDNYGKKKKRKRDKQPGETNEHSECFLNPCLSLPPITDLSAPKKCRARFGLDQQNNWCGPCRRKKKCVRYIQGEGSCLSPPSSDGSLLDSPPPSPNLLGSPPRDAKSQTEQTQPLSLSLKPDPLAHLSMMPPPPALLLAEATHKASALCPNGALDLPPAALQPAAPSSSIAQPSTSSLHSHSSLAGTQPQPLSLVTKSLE"}
{"protein": "HA-TNIK K54R, ATP binding site mutant of human TNIK expressed from pCIneo-HA-TNIK K54R (protein) MASDSPARSLDEIDLSALRDPAGIFELVELVGNGTYGQVYKGRHVKTGQLAAIRVMDVTGDEEEEIKQEINMLKKYSHHRNIATYYGAFIKKNPPGMDDQLWLVMEFCGAGSVTDLIKNTKGNTLKEEWIAYICREILRGLSHLHQHKVIHRDIKGQNVLLTENAEVKLVDFGVSAQLDRTVGRRNTFIGTPYWMAPEVIACDENPDATYDFKSDLWSLGITAIEMAEGAPPLCDMHPMRALFLIPRNPAPRLKSKKWSKKFQSFIESCLVKNHSQRPATEQLMKHPFIRDQPNERQVRIQLKDHIDRTKKKRGEKDETEYEYSGSEEEEEENDSGEPSSILNLPGESTLRRDFLRLQLANKERSEALRRQQLEQQQRENEEHKRQLLAERQKRIEEQKEQRRRLEEQQRREKELRKQQEREQRRHYEEQMRREEERRRAEHEQEYIRRQLEEEQRQLEILQQQLLHEQALLLEYKRKQLEEQRQAERLQRQLKQERDYLVSLQHQRQEQRPVEKKPLYHYKEGMSPSEKPAWAKEVEERSRLNRQSSPAMPHKVANRISDPNLPPRSESFSISGVQPARTPPMLRPVDPQIPHLVAVKSQGPALTASQSVHEQPTKGLSGFQEALNVTSHRVEMPRQNSDPTSENPPLPTRIEKFDRSSWLRQEEDIPPKVPQRTTSISPALARKNSPGNGSALGPRLGSQPIRASNPDLRRTEPILESPLQRTSSGSSSSSSTPSSQPSSQGGSQPGSQAGSSERTRVRANSKSEGSPVLPHEPAKVKPEESRDITRPSRPASYKKAIDEDLTALAKELRELRIEETNRPMKKVTDYSSSSEESESSEEEEEDGESETHDGTVAVSDIPRLIPTGAPGSNEQYNVGMVGTHGLETSHADSFSGSISREGTLMIRETSGEKKRSGHSDSNGFAGHINLPDLVQQSHSPAGTPTEGLGRVSTHSQEMDSGTEYGMGSSTKASFTPFVDPRVYQTSPTDEDEEDEESSAAALFTSELLRQEQAKLNEARKISVVNVNPTNIRPHSDTPEIRKYKKRFNSEILCAALWGVNLLVGTENGLMLLDRSGQGKVYNLINRRRFQQMDVLEGLNVLVTISGKKNKLRVYYLSWLRNRILHNDPEVEKKQGWITVGDLEGCIHYKVVKYERIKFLVIALKNAVEIYAWAPKPYHKFMAFKSFADLQHKPLLVDLTVEEGQRLKVIFGSHTGFHVIDVDSGNSYDIYIPSHIQGNITPHAIVILPKTDGMEMLVCYEDEGVYVNTYGRITKDVVLQWGEMPTSVAYIHSNQIMGWGEKAIEIRSVETGHLDGVFMHKRAQRLKFLCERNDKVFFASVRSGGSSQVFFMTLNRNSMMNW", "values": [{"measurement": "serine phosphorylation of TCF4 (immunoprecipitation with anti-TCF4, immunoblot with anti-phospho-serine antibody)", "result": "significant serine phosphorylation was not observed compared with control"}]}
